According to US12715902B2 (dated 2026):

How the values were obtained:
Assay in all cases: cytokine release
[1] = molecular target: T1, ATM G2695V peptide on HLA-A*03:01 (human)
T1 peptide: LAGVVNLPK
Source text: (§1) To confirm the specificity and activity of nucleic acid encoding TCRs against ATM and ARID1A, each of the codon optimized nucleic acids were introduced into donor T cells. The chimeric TCR-transduced T cells (TRBV9*01+TRAV14/DV4 chimeric TCR) were co-cultured with dendritic cells expressing wildtype ATM or mutated forms of ATM (G2695V, G2695A, G2695C, or G2695S). The chimeric TCR-transduced T cells (TRBV25-1+TRAV20 chimeric TCR) were co-cultured with dendritic cells expressing wildtype ARID1A or ARID1A H1960fs. After overnight incubation, the supernatant was assessed for production of interferon-gamma using an ELISA. […] See FIGS. 9A and 9B, respectively.

[2] = molecular target: T2, ATM G2695A peptide on HLA-A*03:01 (human)
T2 peptide: LAGAVNLPK
Source text: as §1

[3] = molecular target: T3, ATM G2695C peptide on HLA-A*03:01 (human)
T3 peptide: LAGCVNLPK
Source text: as §1

[4] = molecular target: T4, ATM G2695S peptide on HLA-A*03:01 (human)
T4 peptide: LAGSVNLPK
Source text: as §1

[5] = molecular target: T5, ATM wild type (glycine at 2695) peptide on HLA-A*03:01 (human)
T5 peptide: LAGGVNLPK
Source text: as §1

- binding result [1]: recognises
- binding result [2]: recognises
- binding result [3]: recognises
- binding result [4]: recognises
- binding result [5]: no recognition
B1: TRBV9*01+TRAV14/DV4 TCR (TCR, V domains shown)
Valpha: AQKITQTQPGMFVQEKEAVTLDCTYDTSDQSYGLFWYKQPSSGEMIFLIYQGSYDEQNATEGRYSLNFQKARKSANLVISASQLGDSAMYFCAMREQGAQKLVFGQGTRLTINP
Vbeta: DSGVTQTPKHLITATGQQVTLRCSPRSGDLSVYWYQQSLDQGLQFLIQYYNGEERAKGNILERFSAQQFPDLHSELNLSSLELGDSALYFCASSAAVHYGYTFGSGTRLTVV
